Test results as given in patent US7361485.

What was measured:
[1] = target: T1, modified pro-caspase-3 with an aggrecanase recognition sequence, P42574
T1 chain: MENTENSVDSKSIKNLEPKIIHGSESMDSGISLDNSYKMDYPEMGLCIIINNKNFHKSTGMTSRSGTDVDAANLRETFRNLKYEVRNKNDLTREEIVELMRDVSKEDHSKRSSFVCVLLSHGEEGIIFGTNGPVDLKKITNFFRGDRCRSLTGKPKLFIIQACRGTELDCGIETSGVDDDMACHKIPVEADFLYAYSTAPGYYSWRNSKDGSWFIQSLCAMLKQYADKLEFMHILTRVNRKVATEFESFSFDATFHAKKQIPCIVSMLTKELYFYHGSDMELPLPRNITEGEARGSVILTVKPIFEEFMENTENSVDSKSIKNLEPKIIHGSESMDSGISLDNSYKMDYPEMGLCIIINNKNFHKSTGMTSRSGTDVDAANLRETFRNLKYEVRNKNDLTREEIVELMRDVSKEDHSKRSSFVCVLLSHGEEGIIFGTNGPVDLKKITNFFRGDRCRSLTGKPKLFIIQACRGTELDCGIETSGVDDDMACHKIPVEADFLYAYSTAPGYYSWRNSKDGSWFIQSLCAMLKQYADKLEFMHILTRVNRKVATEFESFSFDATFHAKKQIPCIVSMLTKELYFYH

[2] = target: T2, modified pro-caspase-7 with an aggrecanase activation sequence, P55210
T2 chain: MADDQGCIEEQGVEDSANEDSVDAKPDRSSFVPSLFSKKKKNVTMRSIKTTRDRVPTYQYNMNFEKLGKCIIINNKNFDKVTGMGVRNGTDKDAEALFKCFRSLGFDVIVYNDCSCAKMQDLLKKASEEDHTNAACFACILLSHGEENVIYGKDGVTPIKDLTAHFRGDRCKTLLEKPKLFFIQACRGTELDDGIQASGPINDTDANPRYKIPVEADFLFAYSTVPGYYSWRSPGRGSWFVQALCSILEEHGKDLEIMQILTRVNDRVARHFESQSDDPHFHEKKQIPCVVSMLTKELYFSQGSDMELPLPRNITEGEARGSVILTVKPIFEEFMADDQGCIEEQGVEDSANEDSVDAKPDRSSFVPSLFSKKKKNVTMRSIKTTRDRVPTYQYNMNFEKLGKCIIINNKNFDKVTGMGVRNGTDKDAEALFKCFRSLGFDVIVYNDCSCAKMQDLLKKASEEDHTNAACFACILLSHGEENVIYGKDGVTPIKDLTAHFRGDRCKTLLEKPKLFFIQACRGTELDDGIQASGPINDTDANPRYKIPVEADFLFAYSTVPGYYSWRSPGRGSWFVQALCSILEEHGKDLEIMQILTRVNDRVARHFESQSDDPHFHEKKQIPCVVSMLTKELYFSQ

B1: aggrecanase (ADAMTS-4) (protein)
chain: FASLSRFVETLVVADDKMAAFHGAGLKRYLLTVMAAAAKAFKHPSIRNPVSLVVTRLVILGSGEEGPQVGPSAAQTLRSFCAWQRGLNTPEDSDPDHFDTAILFTRQDLCGVSTCDTLGMADVGTVCDPARSCAIVEDDGLQSAFTAAHELGHVFNMLHDNSKPCISLNGPLSTSRHVMAPVMAHVDPEEPWSPCSARFITDFLDNGYGHCLLDKPEAPLHLPVTFPGKDYDADRQCQLTFGPDSRHCPQLPPPCAALWCSGHLNGHAMCQTKHSPWADGTPCGPAQACMGGRCLHMDQLQDFNIPQAGGWGPWGPWGDCSRTCGGGVQFSSRDCTRPVPRNGGKYCEGRRTRFRSCNTEDCPTGSALTFREEQCAAYNHRTDLFKSFPGPMDWVPRYTGVAPQDQCKLTCQAQALGYYYVLEPRVVDGTPCSPDSSSVCVQGRCIHAGCDRIIGSKKKFDKCMVCGGDGSGCSKQSGSFRKFRYGYNNVVTIPAGATHILVRQQGNPGHRSIYLALKLPDGSYALNGEYTLMPSPTDVVLPGAVSLRYSGATAASETLSGHGPLAQPLTLQVLVAGNPQDTRLRYSFFVPRPTPSTPRPTPQDWLHRRAQILEILRRRPWAGRK
caspase activity (DEVD-pNA, A405) [1]: Upon incubation of the various pro-caspase variants with their respective target enzymes a clear increase in caspase activity was observed.
caspase activity (DEVD-pNA, A405) [2]: Upon incubation of the various pro-caspase variants with their respective target enzymes a clear increase in caspase activity was observed.
